T1: CARD11, Q9BXL7
T1 sequence (Q9BXL7 662-765, limits assumed, looked up): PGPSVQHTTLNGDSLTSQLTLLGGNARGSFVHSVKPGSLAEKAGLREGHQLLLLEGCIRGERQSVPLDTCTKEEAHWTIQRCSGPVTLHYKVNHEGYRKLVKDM

T2: FRMPD1, Q5SYB0
T2 sequence (Q5SYB0 52-145, limits assumed, looked up): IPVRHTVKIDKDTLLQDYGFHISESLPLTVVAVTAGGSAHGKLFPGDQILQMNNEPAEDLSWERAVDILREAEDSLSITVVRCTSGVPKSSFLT

T3: HTRA4, P83105
T3 sequence (P83105 378-476, limits assumed, looked up): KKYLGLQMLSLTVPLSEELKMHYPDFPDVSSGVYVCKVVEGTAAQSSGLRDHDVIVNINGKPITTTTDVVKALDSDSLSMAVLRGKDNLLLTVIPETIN

T4: LRRC7, Q96NW7
T4 sequence (Q96NW7 1440-1537, limits assumed, looked up): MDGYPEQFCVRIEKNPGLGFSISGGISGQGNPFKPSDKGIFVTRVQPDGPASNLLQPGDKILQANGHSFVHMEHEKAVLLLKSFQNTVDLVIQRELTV

T5: MPDZ_5, O75970
T5 sequence (O75970 695-796, limits assumed, looked up): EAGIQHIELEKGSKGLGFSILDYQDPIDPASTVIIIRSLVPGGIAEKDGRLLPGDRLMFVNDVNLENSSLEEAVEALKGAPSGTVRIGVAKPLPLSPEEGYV

T6: MPP2, Q14168
T6 sequence (Q14168 180-250, limits assumed, looked up): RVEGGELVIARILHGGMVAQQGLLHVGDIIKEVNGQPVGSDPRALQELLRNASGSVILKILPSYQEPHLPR

T7: NHERF3_4, Q5T2W1
T7 sequence (Q5T2W1 373-468, limits assumed, looked up): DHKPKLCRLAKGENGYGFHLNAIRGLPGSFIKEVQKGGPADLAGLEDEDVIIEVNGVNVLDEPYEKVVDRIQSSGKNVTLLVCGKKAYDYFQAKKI

T8: PTPN13_1, Q12923
T8 sequence (Q12923 1088-1188, limits assumed, looked up): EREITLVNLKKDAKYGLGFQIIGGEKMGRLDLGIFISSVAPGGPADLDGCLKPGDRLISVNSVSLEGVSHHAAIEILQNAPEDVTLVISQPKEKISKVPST

T9: SIPA1L2, Q9P2F8
T9 sequence (Q9P2F8 945-1036, limits assumed, looked up): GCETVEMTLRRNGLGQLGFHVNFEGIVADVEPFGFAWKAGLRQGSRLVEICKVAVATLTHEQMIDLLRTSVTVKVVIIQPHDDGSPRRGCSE

T10: SNTB1, Q13884
T10 sequence (Q13884 107-205, limits assumed, looked up): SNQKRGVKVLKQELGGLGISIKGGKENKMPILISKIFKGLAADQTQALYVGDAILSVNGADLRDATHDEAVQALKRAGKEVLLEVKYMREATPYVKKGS

T11: SNTG2, Q9NY99
T11 sequence (Q9NY99 68-166, limits assumed, looked up): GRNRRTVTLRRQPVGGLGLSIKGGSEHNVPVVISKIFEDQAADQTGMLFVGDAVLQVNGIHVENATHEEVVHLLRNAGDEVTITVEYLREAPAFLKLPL


Key:
Test in all cases: holdup assay
Set-up in all cases: key: below the threshold = too weak to quantify, mostly under pKd 3.1 to 4
Details in all cases: plain residues with an end cap or a label only (N-terminal biotin on a linker: ado-ado)
CARD11, Q9BXL7 = target: T1, CARD11, Q9BXL7
DLG1_2, Q12959 = target: DLG1_2, Q12959
Chain of DLG1_2, Q12959 (Q12959 314-412): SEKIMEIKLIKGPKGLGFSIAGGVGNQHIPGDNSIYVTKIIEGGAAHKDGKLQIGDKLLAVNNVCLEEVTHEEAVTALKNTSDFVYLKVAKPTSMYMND

DLG4_2, P78352 = target: DLG4_2, P78352
Chain of DLG4_2, P78352 (P78352 155-259): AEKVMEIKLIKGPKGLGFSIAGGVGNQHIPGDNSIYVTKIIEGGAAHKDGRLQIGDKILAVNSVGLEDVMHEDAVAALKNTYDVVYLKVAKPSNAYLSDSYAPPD

DLG4_3, P78352 = target: DLG4_3, P78352
Chain of DLG4_3, P78352 (P78352 306-403): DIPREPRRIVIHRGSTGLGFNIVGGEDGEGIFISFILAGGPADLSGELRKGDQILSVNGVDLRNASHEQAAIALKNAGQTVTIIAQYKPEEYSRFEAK

FRMPD1, Q5SYB0 = target: T2, FRMPD1, Q5SYB0
FRMPD2_2, Q68DX3 = target: FRMPD2_2, Q68DX3
Chain of FRMPD2_2, Q68DX3 (Q68DX3 944-1038): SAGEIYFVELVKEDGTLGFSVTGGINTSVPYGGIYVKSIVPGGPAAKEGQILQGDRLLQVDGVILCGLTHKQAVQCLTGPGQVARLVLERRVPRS

GRASP, Q7Z6J2 = target: GRASP, Q7Z6J2
Chain of GRASP, Q7Z6J2 (Q7Z6J2 96-193): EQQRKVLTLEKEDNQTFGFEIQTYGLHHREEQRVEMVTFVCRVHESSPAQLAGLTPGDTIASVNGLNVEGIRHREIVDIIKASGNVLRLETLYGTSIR

GRIP2_3, Q9C0E4 = target: GRIP2_3, Q9C0E4
Chain of GRIP2_3, Q9C0E4 (Q9C0E4 238-339): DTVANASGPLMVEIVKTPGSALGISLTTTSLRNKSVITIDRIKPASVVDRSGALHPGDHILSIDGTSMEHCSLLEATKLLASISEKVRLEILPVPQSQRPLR

HTRA1, Q92743 = target: HTRA1, Q92743
Chain of HTRA1, Q92743 (Q92743 360-477): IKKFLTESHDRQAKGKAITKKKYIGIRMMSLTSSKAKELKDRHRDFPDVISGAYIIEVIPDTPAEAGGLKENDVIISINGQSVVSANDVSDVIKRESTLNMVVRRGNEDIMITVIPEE

HTRA4, P83105 = target: T3, HTRA4, P83105
Inadl_1, Q8NI35 = target: Inadl_1, Q8NI35
Chain of Inadl_1, Q8NI35 (Q8NI35 113-229): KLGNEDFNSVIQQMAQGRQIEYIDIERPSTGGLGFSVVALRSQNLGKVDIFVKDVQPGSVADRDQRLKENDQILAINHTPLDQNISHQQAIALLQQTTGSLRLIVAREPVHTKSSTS

Inadl_5, Q8NI35 = target: Inadl_5, Q8NI35
Chain of Inadl_5, Q8NI35 (Q8NI35 673-780): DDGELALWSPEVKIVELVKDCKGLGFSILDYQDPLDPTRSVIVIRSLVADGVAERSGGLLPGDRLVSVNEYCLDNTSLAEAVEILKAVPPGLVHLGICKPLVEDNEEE

LAP2, Q96RT1 = target: LAP2, Q96RT1
Chain of LAP2, Q96RT1 (Q96RT1 other isoform, or with tags, fused parts or gaps): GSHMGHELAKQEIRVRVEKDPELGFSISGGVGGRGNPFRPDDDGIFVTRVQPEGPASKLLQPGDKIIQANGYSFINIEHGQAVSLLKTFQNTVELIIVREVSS

LRRC7, Q96NW7 = target: T4, LRRC7, Q96NW7
MAGI3_2, Q5TCQ9 = target: MAGI3_2, Q5TCQ9
Chain of MAGI3_2, Q5TCQ9 (Q5TCQ9 398-503): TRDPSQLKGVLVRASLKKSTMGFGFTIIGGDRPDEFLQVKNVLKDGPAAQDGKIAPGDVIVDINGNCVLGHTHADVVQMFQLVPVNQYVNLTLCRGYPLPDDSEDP

MPDZ_5, O75970 = target: T5, MPDZ_5, O75970
MPP2, Q14168 = target: T6, MPP2, Q14168
NHERF2_2, Q15599 = target: NHERF2_2, Q15599
Chain of NHERF2_2, Q15599 (Q15599 142-238): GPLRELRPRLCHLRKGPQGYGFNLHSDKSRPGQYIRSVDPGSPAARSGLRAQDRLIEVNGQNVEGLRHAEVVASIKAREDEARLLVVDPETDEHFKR

NHERF3_4, Q5T2W1 = target: T7, NHERF3_4, Q5T2W1
NHERF4_1, Q86UT5-2 = target: NHERF4_1, Q86UT5-2
Chain of NHERF4_1, Q86UT5-2 (Q86UT5 other isoform, or with tags, fused parts or gaps): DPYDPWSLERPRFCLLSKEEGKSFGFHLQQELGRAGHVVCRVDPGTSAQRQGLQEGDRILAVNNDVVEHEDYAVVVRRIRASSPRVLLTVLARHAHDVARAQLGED

PICK1, Q9NRD5 = target: PICK1, Q9NRD5
Chain of PICK1, Q9NRD5 (Q9NRD5 17-115): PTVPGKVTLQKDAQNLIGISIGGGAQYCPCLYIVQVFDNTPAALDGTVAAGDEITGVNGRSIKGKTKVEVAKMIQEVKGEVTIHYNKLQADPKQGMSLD

PTPN13_1, Q12923 = target: T8, PTPN13_1, Q12923
SIPA1L2, Q9P2F8 = target: T9, SIPA1L2, Q9P2F8
SNTB1, Q13884 = target: T10, SNTB1, Q13884
SNTG2, Q9NY99 = target: T11, SNTG2, Q9NY99
TJP1_3, Q07157 = target: TJP1_3, Q07157
Chain of TJP1_3, Q07157 (Q07157 416-512): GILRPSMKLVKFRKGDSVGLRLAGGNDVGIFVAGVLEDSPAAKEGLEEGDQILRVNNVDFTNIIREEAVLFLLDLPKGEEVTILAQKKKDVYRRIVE

pKd (CARD11, Q9BXL7)	pKd (DLG1_2, Q12959)	pKd (DLG4_2, P78352)	pKd (DLG4_3, P78352)	pKd (FRMPD1, Q5SYB0)	pKd (FRMPD2_2, Q68DX3)	pKd (GRASP, Q7Z6J2)	pKd (GRIP2_3, Q9C0E4)	pKd (HTRA1, Q92743)	pKd (HTRA4, P83105)	pKd (Inadl_1, Q8NI35)	pKd (Inadl_5, Q8NI35)	pKd (LAP2, Q96RT1)	pKd (LRRC7, Q96NW7)	pKd (MAGI3_2, Q5TCQ9)	pKd (MPDZ_5, O75970)	pKd (MPP2, Q14168)	pKd (NHERF2_2, Q15599)	pKd (NHERF3_4, Q5T2W1)	pKd (NHERF4_1, Q86UT5-2)	Binder	other results
below the threshold	below the threshold	below the threshold	below the threshold	below the threshold	below the threshold	below the threshold	below the threshold	3.58	below the threshold	below the threshold	below the threshold	below the threshold	below the threshold	below the threshold	below the threshold	3.77	below the threshold	below the threshold	below the threshold	FEEEAEEEVA [TUBB4B, P68371]	pKd (PICK1, Q9NRD5): below the threshold; pKd (PTPN13_1, Q12923): below the threshold; pKd (SIPA1L2, Q9P2F8): below the threshold; pKd (SNTB1, Q13884): below the threshold; pKd (SNTG2, Q9NY99): below the threshold; pKd (TJP1_3, Q07157): below the threshold
below the threshold	5.44	5.27	4.81	below the threshold	4.11	4.57	below the threshold	4.83	4.5	below the threshold	below the threshold	3.87	below the threshold	5.16	below the threshold	below the threshold	below the threshold	below the threshold	3.47	REVVMRVTTV [MARCHF9, Q86YJ5]	pKd (PICK1, Q9NRD5): below the threshold; pKd (PTPN13_1, Q12923): below the threshold; pKd (SIPA1L2, Q9P2F8): below the threshold; pKd (SNTB1, Q13884): 5.37; pKd (SNTG2, Q9NY99): 4.65; pKd (TJP1_3, Q07157): below the threshold
below the threshold	4.72	4.65	3.54	below the threshold	below the threshold	4.37	below the threshold	4.2	4.11	below the threshold	3.65	below the threshold	below the threshold	4.83	below the threshold	below the threshold	3.82	below the threshold	below the threshold	VISERNSTTV [C3AR1, Q16581]	pKd (PICK1, Q9NRD5): below the threshold; pKd (PTPN13_1, Q12923): below the threshold; pKd (SIPA1L2, Q9P2F8): below the threshold; pKd (SNTB1, Q13884): 3.77; pKd (SNTG2, Q9NY99): 3.61; pKd (TJP1_3, Q07157): below the threshold
below the threshold	below the threshold	below the threshold	below the threshold	below the threshold	below the threshold	below the threshold	below the threshold	5.05	3.75	below the threshold	below the threshold	below the threshold	below the threshold	below the threshold	below the threshold	below the threshold	below the threshold	below the threshold	below the threshold	PDGEMMEVLI [AMOTL1, Q8IY63]	pKd (PICK1, Q9NRD5): below the threshold; pKd (PTPN13_1, Q12923): below the threshold; pKd (SIPA1L2, Q9P2F8): below the threshold; pKd (SNTB1, Q13884): below the threshold; pKd (SNTG2, Q9NY99): below the threshold; pKd (TJP1_3, Q07157): below the threshold
below the threshold	4.29	3.98	below the threshold	below the threshold	below the threshold	below the threshold	below the threshold	4.26	below the threshold	below the threshold	below the threshold	below the threshold	below the threshold	4.37	below the threshold	below the threshold	4.05	3.53	4.33	WRSKRTDTLL [RAMP3, O60896]	pKd (PICK1, Q9NRD5): below the threshold; pKd (PTPN13_1, Q12923): below the threshold; pKd (SIPA1L2, Q9P2F8): below the threshold; pKd (SNTB1, Q13884): below the threshold; pKd (SNTG2, Q9NY99): below the threshold; pKd (TJP1_3, Q07157): below the threshold

Reference: publication PMC9482650, “Quantitative fragmentomics allow affinity mapping of interactomes” (Nature Communications, 2022)
